{"source": "patent US20200262920A1", "about": "(AMPHIVENA THERAPEUTICS, published 2020)", "binders": {"B1": {"name": "CD33/CD3 2×2 T-cell engager 16 (bispecific antibody)", "chain": "DIQMTQSPSSLSASVGDRVTITCRSSTGAVTTSNYANWVQQKPGKAPKALIGGTNKRAPGVPSRFSGSLIGDKATLTISSLQPEDFATYYCALWYSNLWVFGQGTKVEIKGGSGGSQVQLVQSGAEVKKPGASVKVSCKASGYTFTSYDINWVRQAPGQGLEWMGWMNPNSGNTGFAQKFQGRVTMTRDTSTSTVYMELSSLRSEDTAVYYCARDRANTDYSLGMDVWGQGTLVTVSSGGSGQSVLTQPPSASGTPGQRVTISCSGSRSNIGSNTVNWYQQLPGTAPKLLIYGNNQRPSGVPDRFSGSKSGTSASLAISGLQSEDEADYYCATWDDSLIGWVFGGGTKLTVLGGSGGSEVQLVESGGGLVQPGGSLRLSCAASGFTFSTYAMNWVRQAPGKGLEWVGRIRSKYNNYATYYADSVKDRFTISRDDSKNSLYLQMNSLKTEDTAVYYCARHGNFGNSYVSYFAYWGQGTLVTVSSAAAGSHHHHHH", "notes": "Non-covalent homodimer; also called AMV564; AMV 564"}}, "key": {"human CD33 [1]": {"target": "T1, human CD33 (human, UniProt P20138 18-364)", "T1 construct": "whole, on cells; also called huCD33; CD33 on HL-60, KG-1, KG-1a, U-937 cells", "T1 sequence (P20138 18-364)": "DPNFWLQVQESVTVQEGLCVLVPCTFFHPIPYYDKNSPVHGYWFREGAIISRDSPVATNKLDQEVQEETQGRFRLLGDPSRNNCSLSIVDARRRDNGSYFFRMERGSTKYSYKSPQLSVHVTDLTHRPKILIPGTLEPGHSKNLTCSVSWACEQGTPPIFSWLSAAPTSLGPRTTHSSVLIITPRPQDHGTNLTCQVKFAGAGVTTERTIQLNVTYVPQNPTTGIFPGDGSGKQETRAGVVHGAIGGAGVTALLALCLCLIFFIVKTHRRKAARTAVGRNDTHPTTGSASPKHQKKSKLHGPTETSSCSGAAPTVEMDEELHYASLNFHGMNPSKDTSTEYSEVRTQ", "experiment": "flow cytometry titration, U-937 cells", "how_it_was_run": "(§1)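 Cells titrated with CD33/CD3 2×2 T-cell engagers, detected via anti-His then FITC anti-mouse IgG on ice, with PI exclusion of dead cells. Background-subtracted mean fluorescence fit to one-site binding for KD; cross-reactivity ratio from KDs on CHO cells expressing recombinant cynomolgus or human CD33.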"}, "human CD33 [2]": {"target": "T1, human CD33", "experiment": "flow cytometry titration, KG-1 cells", "how_it_was_run": "as §1"}, "human CD33 [3]": {"target": "T1, human CD33", "experiment": "cell-based or functional assay"}, "human CD33 [4]": {"target": "T1, human CD33", "experiment": "cell-based or functional assay", "remark": "listed apart in the source"}, "human CD33 [5]": {"target": "T1, human CD33", "experiment": "flow cytometry, HL-60 cells"}, "human CD3 [6]": {"target": "T2, human CD3 (human, UniProt P07766 23-207; P09693 23-182; P04234 22-171; P20963 22-164)", "T2 construct": "whole, on cells; the description names the epsilon chain only 'in certain instances'; also called hu CD3; CD3 on T cells", "T2 sequence (P07766 23-207, chain 1 of 4)": "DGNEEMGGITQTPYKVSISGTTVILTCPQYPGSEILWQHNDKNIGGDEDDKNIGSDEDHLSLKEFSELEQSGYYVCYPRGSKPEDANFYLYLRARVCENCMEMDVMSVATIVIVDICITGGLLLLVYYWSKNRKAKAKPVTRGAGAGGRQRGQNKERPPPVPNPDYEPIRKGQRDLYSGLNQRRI", "T2 sequence (P09693 23-182, chain 2 of 4)": "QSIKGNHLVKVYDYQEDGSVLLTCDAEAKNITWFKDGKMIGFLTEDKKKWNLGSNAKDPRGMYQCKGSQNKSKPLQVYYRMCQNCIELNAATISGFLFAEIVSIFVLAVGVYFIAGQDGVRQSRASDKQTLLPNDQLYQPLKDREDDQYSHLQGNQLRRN", "T2 sequence (P04234 22-171, chain 3 of 4)": "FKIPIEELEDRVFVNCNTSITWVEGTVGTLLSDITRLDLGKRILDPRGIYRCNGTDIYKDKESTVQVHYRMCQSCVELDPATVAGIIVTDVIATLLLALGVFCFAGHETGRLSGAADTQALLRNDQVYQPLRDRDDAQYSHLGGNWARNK", "T2 sequence (P20963 22-164, chain 4 of 4)": "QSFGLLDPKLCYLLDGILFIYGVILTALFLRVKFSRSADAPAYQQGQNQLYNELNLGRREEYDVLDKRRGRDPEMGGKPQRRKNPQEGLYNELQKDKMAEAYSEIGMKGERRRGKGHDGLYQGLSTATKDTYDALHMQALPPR", "experiment": "flow cytometry, human T-cells"}, "human CD33 [7]": {"target": "T1, human CD33", "experiment": "cell-based or functional assay", "remark": "listed apart in the source"}, "human CD33 [8]": {"target": "T1, human CD33", "experiment": "cell-based or functional assay", "remark": "listed apart in the source"}, "human CD33 [9]": {"target": "T1, human CD33", "experiment": "flow cytometry titration, HL-60 cells", "how_it_was_run": "as §1"}, "human CD3 [10]": {"target": "T2, human CD3", "experiment": "cell-based or functional assay"}, "human CD33 [11]": {"target": "T1, human CD33", "experiment": "cell-based or functional assay", "remark": "listed apart in the source"}, "human CD3 [12]": {"target": "T2, human CD3", "experiment": "flow cytometry titration, T cells (human CD3+)"}}, "note": "Values joined by “and” are separate entries in the source; they are usually repeats but may differ in a detail not shown here. Equal values may be shown once.", "data": [{"binder": "B1", "values": [{"measurement": "Kd", "setting": "human CD33 [1]", "value": 300, "unit": "pM"}, {"measurement": "Kd", "setting": "human CD33 [2]", "value": 200, "unit": "pM"}, {"measurement": "EC50, calcein-release lysis of HL-60, 30 min incubation", "setting": "human CD33 [3]", "value": 4.8, "unit": "pM"}, {"measurement": "EC50, calcein-release lysis of HL-60, 60 min incubation", "setting": "human CD33 [3]", "value": 2.5, "unit": "pM"}, {"measurement": "EC50, calcein-release lysis of HL-60, 120 min incubation", "setting": "human CD33 [3]", "value": 1.6, "unit": "pM"}, {"measurement": "EC50, calcein-release lysis of HL-60, 180 min incubation", "setting": "human CD33 [3]", "value": 1.6, "unit": "pM"}, {"measurement": "EC50, calcein-release lysis of HL-60, 240 min incubation", "setting": "human CD33 [3]", "value": 1.5, "unit": "pM"}, {"measurement": "EC50, calcein-release lysis of HL-60, 300 min incubation", "setting": "human CD33 [3]", "value": 1.6, "unit": "pM"}, {"measurement": "EC50 on HL-60 (cytotoxicity)", "setting": "human CD33 [4]", "value": 1.5, "unit": "pM"}, {"measurement": "Kd", "setting": "human CD33 [5]", "value": 300, "unit": "pM"}, {"measurement": "Kd", "setting": "human CD3 [6]", "value": 5100, "unit": "pM"}, {"measurement": "IC50, lysis of KG-1 cells (separate experiment)", "setting": "human CD33 [7]", "value": 5, "unit": "pM"}, {"measurement": "IC50, lysis of KG-1 cells with human T cells", "setting": "human CD33 [7]", "value": "~0.5", "unit": "pM"}, {"measurement": "EC50 (mean), redirected lysis of BV-173 cells", "setting": "human CD33 [8]", "value": 3.2, "unit": "pM"}, {"measurement": "EC50 (mean), redirected lysis of CHO-CD33 cells", "setting": "human CD33 [8]", "value": 24, "unit": "pM"}, {"measurement": "EC50 (mean), redirected lysis of HL-60 cells", "setting": "human CD33 [8]", "value": 1.6, "unit": "pM"}, {"measurement": "EC50 (mean), redirected lysis of K562 cells", "setting": "human CD33 [8]", "value": 4.8, "unit": "pM"}, {"measurement": "EC50 (mean), redirected lysis of KASUMI-1 cells", "setting": "human CD33 [8]", "value": 2.4, "unit": "pM"}, {"measurement": "EC50 (mean), redirected lysis of KG-1 cells", "setting": "human CD33 [8]", "value": 1.9, "unit": "pM"}, {"measurement": "EC50 (mean), redirected lysis of RPMI-8226 cells", "setting": "human CD33 [8]", "value": 2.8, "unit": "pM"}, {"measurement": "EC50 (mean), redirected lysis of THP-1 cells", "setting": "human CD33 [8]", "value": 6, "unit": "pM"}, {"measurement": "EC50 (mean), redirected lysis of U-937 cells", "setting": "human CD33 [8]", "value": 1.3, "unit": "pM"}, {"measurement": "Kd", "setting": "human CD33 [9]", "value": 300, "unit": "pM"}, {"measurement": "CD25 Induction EC50", "setting": "human CD3 [10]", "value": 1, "unit": "pM"}, {"measurement": "CD69 Induction EC50", "setting": "human CD3 [10]", "value": 2, "unit": "pM"}, {"measurement": "T cell Proliferation in PBMC EC50", "setting": "human CD3 [10]", "value": 3, "unit": "pM"}, {"measurement": "EC50, cytotoxicity on HL-60", "setting": "human CD33 [11]", "value": "1.5 pM and 158 pg/mL"}, {"measurement": "EC50, cytotoxicity on KG-1", "setting": "human CD33 [11]", "value": "1.8 pM and 189 pg/mL"}, {"measurement": "EC50, cytotoxicity on U-937", "setting": "human CD33 [11]", "value": "1.9 pM and 200 pg/mL"}, {"measurement": "EC50, cytotoxicity, mean of HL-60, U-937, KG-1", "setting": "human CD33 [11]", "value": "1.7 pM and 179 pg/mL"}, {"measurement": "Kd", "setting": "human CD3 [12]", "value": 2100, "unit": "pM"}]}]}
